Starred links: 1 amine or outer side, 2 acyl side, 3 side chain; linkers in the order of their positions; H or OH if unused. Positions of bridges follow the written chain, without caps; N, C: chain ends. Non-standard residues stand in square brackets, D forms with d. Residues, ends and D or L forms follow the SMILES beside them. Groups on a side chain read outwards from the residue. No end group written: not given here. *: point of attachment. C18 diacid = O=C(O)CCCCCCCCCCCCCCCCC(=O)*; Dip = N[C@H](C(=O)O)C(c1ccccc1)c1ccccc1; γGlu = O=C(O)[C@H](CCC(=O)[*:2])N[*:1]; Palmitoyl = CCCCCCCCCCCCCCCC(=O)*; β3hF = N[C@H](CC(=O)O)Cc1ccccc1; Isovaleryl = CC(C)CC(=O)*; AEEA = NCCOCCOCC(=O)O; Ahx = NCCCCCC(=O)O
B1: Isovaleric Acid-E-T-H-F-P-A-I-[Lys(Ahx_Palm)]-F-E-P-R-S-K-G-A-K-NH2 (peptide)
peptide: Isovaleryl-ETHFPAIK([Ahx-Palmitoyl])FEPRSKGAK-NH2
SMILES: CCCCCCCCCCCCCCCC(=O)NCCCCCC(=O)NCCCC[C@H](NC(=O)[C@@H](NC(=O)[C@H](C)NC(=O)[C@@H]1CCCN1C(=O)[C@H](Cc1ccccc1)NC(=O)[C@H](Cc1c[nH]cn1)NC(=O)[C@@H](NC(=O)[C@H](CCC(=O)O)NC(=O)CC(C)C)[C@@H](C)O)[C@@H](C)CC)C(=O)N[C@@H](Cc1ccccc1)C(=O)N[C@@H](CCC(=O)O)C(=O)N1CCC[C@H]1C(=O)N[C@@H](CCCNC(=N)N)C(=O)N[C@@H](CO)C(=O)N[C@@H](CCCCN)C(=O)NCC(=O)N[C@@H](C)C(=O)N[C@@H](CCCCN)C(N)=O
B2: Isovaleric Acid-E-T-H-A-P-A-I-[(D)Lys]-[bhPhe]-[Lys(Ahx_Palm)]-[(D)Lys]-A-NH2 (peptide)
peptide: Isovaleryl-ETHAPAI[dK][β3hF]K([Ahx-Palmitoyl])[dK]A-NH2
SMILES: CCCCCCCCCCCCCCCC(=O)NCCCCCC(=O)NCCCC[C@H](NC(=O)C[C@H](Cc1ccccc1)NC(=O)[C@@H](CCCCN)NC(=O)[C@@H](NC(=O)[C@H](C)NC(=O)[C@@H]1CCCN1C(=O)[C@H](C)NC(=O)[C@H](Cc1c[nH]cn1)NC(=O)[C@@H](NC(=O)[C@H](CCC(=O)O)NC(=O)CC(C)C)[C@@H](C)O)[C@@H](C)CC)C(=O)N[C@H](CCCCN)C(=O)N[C@@H](C)C(N)=O
B3: Isovaleric Acid-E-T-H-[Dpa]-A-A-I-[(D)Lys]-[bhPhe]-[Lys(Ahx_Palm)]-[(D)Lys]-A-NH2 (peptide)
peptide: Isovaleryl-ETH[Dip]AAI[dK][β3hF]K([Ahx-Palmitoyl])[dK]A-NH2
SMILES: CCCCCCCCCCCCCCCC(=O)NCCCCCC(=O)NCCCC[C@H](NC(=O)C[C@H](Cc1ccccc1)NC(=O)[C@@H](CCCCN)NC(=O)[C@@H](NC(=O)[C@H](C)NC(=O)[C@H](C)NC(=O)[C@@H](NC(=O)[C@H](Cc1c[nH]cn1)NC(=O)[C@@H](NC(=O)[C@H](CCC(=O)O)NC(=O)CC(C)C)[C@@H](C)O)C(c1ccccc1)c1ccccc1)[C@@H](C)CC)C(=O)N[C@H](CCCCN)C(=O)N[C@@H](C)C(N)=O

Target: T1, human ferroportin (SLC40A1) fused in frame with GFP, stably expressed in HEK293 cells (human, UniProt Q9NP59 1-571)
T1 sequence (looked up): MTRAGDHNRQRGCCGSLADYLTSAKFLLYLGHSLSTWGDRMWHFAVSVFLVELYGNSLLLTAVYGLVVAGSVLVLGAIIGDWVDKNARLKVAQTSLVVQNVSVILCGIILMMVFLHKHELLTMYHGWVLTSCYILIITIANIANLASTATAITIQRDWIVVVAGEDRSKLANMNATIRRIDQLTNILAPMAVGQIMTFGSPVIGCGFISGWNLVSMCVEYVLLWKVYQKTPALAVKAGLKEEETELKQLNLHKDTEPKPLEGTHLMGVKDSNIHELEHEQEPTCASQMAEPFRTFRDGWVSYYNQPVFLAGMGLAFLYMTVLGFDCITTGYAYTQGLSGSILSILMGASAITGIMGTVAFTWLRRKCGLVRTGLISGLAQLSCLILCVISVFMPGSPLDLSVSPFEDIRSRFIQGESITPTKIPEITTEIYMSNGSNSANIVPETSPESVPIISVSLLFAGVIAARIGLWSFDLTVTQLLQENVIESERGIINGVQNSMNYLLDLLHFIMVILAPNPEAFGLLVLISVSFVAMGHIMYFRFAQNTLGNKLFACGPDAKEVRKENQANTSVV
Assay: cell-based or functional assay
Settings: not given

Molecule | FPN EC50 [nM]
Isovaleryl-ETHFPAIK([AEEA-AEEA-Ahx-C18 diacid])FEPRSKGAK-NH2 [Isovaleric Acid-E-T-H-F-P-A-I-[Lys(1Peg2_1Peg2_Ahx_C18_Diacid)]-F-E-P-R-S-K-G-A-K-NH2] | 588
Isovaleryl-ETHFPAIK([AEEA-AEEA-γGlu-C18 diacid])FEPRSKGAK-NH2 [Isovaleric Acid-E-T-H-F-P-A-I-[Lys(1PEG2_1PEG2_IsoGlu_C18_Diacid)]-F-E-P-R-S-K-G-A-K-NH2] | 2360
B1 | 177

Target: T2, ferroportin (Homo sapiens, UniProt Q9NP59)
T2 sequence (Q9NP59 1-571): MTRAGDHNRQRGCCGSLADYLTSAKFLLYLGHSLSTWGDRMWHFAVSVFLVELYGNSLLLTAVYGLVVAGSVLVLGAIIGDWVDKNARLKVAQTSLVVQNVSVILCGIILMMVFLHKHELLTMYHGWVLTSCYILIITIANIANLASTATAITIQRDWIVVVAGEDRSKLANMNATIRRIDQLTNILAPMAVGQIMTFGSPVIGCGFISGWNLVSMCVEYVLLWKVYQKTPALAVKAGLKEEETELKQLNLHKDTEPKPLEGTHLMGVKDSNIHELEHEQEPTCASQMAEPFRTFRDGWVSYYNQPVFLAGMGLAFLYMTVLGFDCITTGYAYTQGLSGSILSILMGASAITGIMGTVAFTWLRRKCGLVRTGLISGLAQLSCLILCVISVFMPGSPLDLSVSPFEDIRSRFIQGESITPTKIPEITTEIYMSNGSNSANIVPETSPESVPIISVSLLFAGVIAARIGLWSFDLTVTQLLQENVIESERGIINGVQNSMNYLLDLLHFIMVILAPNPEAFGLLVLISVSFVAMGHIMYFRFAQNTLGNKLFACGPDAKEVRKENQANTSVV
Assay: T47D cell-based ferroportin internalization assay in presence of mouse serum albumin (MSA), AF647 detection peptide, flow cytometry
Design: a human breast carcinoma adherent cell line which endogenously expresses ferroportin; host or cells: T47D
Settings: second Table 6D, T47D/MSA data; with mouse serum albumin
Protocol: The potency of the peptides in causing ferroportin internalization was evaluated in a T47D cell-based assay. […] In this internalization assay, the potency of the test peptides was evaluated in presence of serum albumin which is the main protein component in the blood. T47D cells were maintained in RPMI media (containing required amount of fetal bovine serum) and regularly sub-cultured. […] The test peptide dilution series were allowed to incubate at room temperature for 30 min. Then the media was aspirated from the 96-well cell plate and test peptide dilution series were added. After 1 hr incubation, the media with test peptides was aspirated out and A1F647-conjugated detection peptide was added at fixed concentration of 200 nM. […] The cells were washed again after a 2 hr incubation in preparation for flow cytometry analysis. The Median Fluorescence Intensity (MFI) of the AF647-positive population was measured (after removing dead cells and non-singlets from the analysis). The MFI values were used to generate a dose-response curve and obtain IC50 potencies for the test peptides. The IC50 potencies were calculated by using 4-parameter non-linear fitting function in Graphpad Prism (Table 6D).

Molecule | IC50 [nM]
CCCCCCCCCCCCCCCC(=O)NCCCCCC(=O)NCCCC[C@H](NC(=O)[C@@H]1CCCCNC(=O)CC[C@H](NC(=O)CC(C)C)C(=O)N[C@@H]([C@@H](C)O)C(=O)N[C@@H](Cc2c[nH]cn2)C(=O)N[C@@H](C(c2ccccc2)c2ccccc2)C(=O)N2CCC[C@H]2C(=O)N[C@@H](C)C(=O)N[C@@H]([C@@H](C)CC)C(=O)N1)C(N)=O [compound 314] (Isovaleryl-ETH[Dip]PAIKK([Ahx-Palmitoyl])-NH2; lactam 1-8) | 10.6
CCCCCCCCCCCCCCCC(=O)N[C@@H](CCC(=O)NCCCC[C@H](NC(=O)[C@@H](NC(=O)[C@H](C)NC(=O)[C@@H]1CCCN1C(=O)[C@@H](NC(=O)[C@H](Cc1c[nH]cn1)NC(=O)[C@@H](NC(=O)[C@H](CCC(=O)O)NC(=O)CC(C)C)[C@@H](C)O)C(c1ccccc1)c1ccccc1)[C@@H](C)CC)C(=O)N[C@H](CC(=O)N[C@H](CCCCN)C(N)=O)Cc1ccccc1)C(=O)O [compound 131] (Isovaleryl-ETH[Dip]PAIK([γGlu-Palmitoyl])[β3hF][dK]-NH2) | 13.3

Target: T1, human ferroportin (SLC40A1) fused in …
Assay: cell-based or functional assay
Settings: not given
Remark: another data set of the same source

Molecule | FPN IC50 [nM]
B2 | > 3000
B3 | 183
K(Isovaleryl)TH[Dip]PAIK([Ahx-Palmitoyl])[bhF] (also: marks (1:1) at Lys1 and (1:2) at bhF9 not explained) [[Lys(IVA(1:1)-T-H-[Dpa]-P-A-I-[Lys(Ahx_Palm)]-bhF(1:2)] | 2150
Isovaleryl-KTH[Dip]PAIK([Ahx-Palmitoyl])[β3hF] [Isovaleric Acid-K-T-H-[Dpa]-P-A-I-[Lys(Ahx_Palm)]-[bhPhe]] | 126
Isovaleryl-K(Gal)TH[Dip]PAIK([Ahx-Palmitoyl])[β3hF]-NH2 [Isovaleric Acid-[Lys(Gal)]-T-H-[Dpa]-P-A-I-[Lys(Ahx_Palm)]-[bhPhe]-NH2] | 76
Isovaleryl-ETH[Dip]PAIK([Ahx-Palmitoyl])[dK](Gal)-NH2 [Isovaleric Acid-E-T-H-[Dpa]-P-A-I-[Lys(Ahx_Palm)]-d[Lys(Gal-NH2] | 181

Target: T3, ferroportin endogenously expressed on T47D cells (HTB 133, ATCC) (human, UniProt Q9NP59 1-571)
T3 sequence (looked up): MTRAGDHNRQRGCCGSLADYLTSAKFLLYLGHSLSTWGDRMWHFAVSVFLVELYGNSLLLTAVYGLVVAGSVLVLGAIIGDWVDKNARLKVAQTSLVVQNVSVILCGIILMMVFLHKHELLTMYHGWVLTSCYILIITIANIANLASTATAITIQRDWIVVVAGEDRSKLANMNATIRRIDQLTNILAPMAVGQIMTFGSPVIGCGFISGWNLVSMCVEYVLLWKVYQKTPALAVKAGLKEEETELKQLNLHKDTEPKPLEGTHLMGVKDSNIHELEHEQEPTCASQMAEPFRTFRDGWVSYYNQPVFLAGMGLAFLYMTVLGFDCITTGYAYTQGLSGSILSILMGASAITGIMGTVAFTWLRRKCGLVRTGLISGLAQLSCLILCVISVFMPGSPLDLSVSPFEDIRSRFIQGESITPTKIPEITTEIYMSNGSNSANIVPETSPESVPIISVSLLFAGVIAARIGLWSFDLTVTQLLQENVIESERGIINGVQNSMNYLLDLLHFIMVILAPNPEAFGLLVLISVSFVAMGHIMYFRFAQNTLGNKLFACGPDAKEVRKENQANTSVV
Assay: cell-based or functional assay
Settings: not given

Molecule | T47D MSA IC50 [nM]
Isovaleryl-ETHFPAIK([AEEA-AEEA-Ahx-C18 diacid])FEPRSKGAK-NH2 [Isovaleric Acid-E-T-H-F-P-A-I-[Lys(1Peg2_1Peg2_Ahx_C18_Diacid)]-F-E-P-R-S-K-G-A-K-NH2] | 261
Isovaleryl-ETHFPAIK([AEEA-AEEA-γGlu-C18 diacid])FEPRSKGAK-NH2 [Isovaleric Acid-E-T-H-F-P-A-I-[Lys(1PEG2_1PEG2_IsoGlu_C18_Diacid)]-F-E-P-R-S-K-G-A-K-NH2] | 3440
B1 | 11.4

Reference: patent US20240066131A1 (Protagonist Therapeutics, Inc., priority 2020, published 2024)
